Results: paper PMC8723827 (Cell, 2022)

B1: EY6A mAb (IgG) (antibody, V domains shown)
VH: EVQLVESGGGVVQPGRSLRLSCAASAFTFSSYDMHWVRQAPGKGLEWVAVISYDGSNKYYADSVKGRFTISRDNSKNTLYLQMNSLRAEDTAVYYCAKDGGKLWVYYFDYWGQGTLVTVSS
VL: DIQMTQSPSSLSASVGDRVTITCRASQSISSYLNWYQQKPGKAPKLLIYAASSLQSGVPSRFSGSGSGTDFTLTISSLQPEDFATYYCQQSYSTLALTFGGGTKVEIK
B2: Beta-55 mAb (IgG) (antibody, V domains shown)
VH: QVQLQESGPGLVKPSETLSLTCTVSGDSISSSRYYWGWIRQPPGKGLEWIGTFYYSGITYYNPSLKSRVTIFVDTSKNQFSLKLSSVTAADTAVYYCARPRPPDYYDNSGALLFDIWGQGTMVTVSS
VL: AIRMTQSPSTLSASVGDRVTIACRASQSISAWLAWYQQKPGKAPKLLIYKASSLESGVPSRFSGSGSGTEFTLTINSLQPDDFATYYCQQYISSSPWTFGQGTKVEIK
B3: mAb 58 Fab (COVOX-58) (Fab, V domains shown)
VH: QVQLVESGGGLVQPGRSLRLSCAASGFTFDDYAMHWVRQPPGKGLEWVSGVSWNSGTIGYADSVKGRFIISRDNAKNSLYLQMNSLKAEDTALYYCAREVGGTFGVLISREGGLDYWGQGTLVTVSS
VL: SYELTQPPSVSVAPGQTARITCGGNTIGSKSVHWYQQRPGQAPVLVVYDDSDRPSGIPERFSGSNSGNTATLTISRVEAGDEADYYCQVWDSSSDRVVFGGGTKLTVL
B4: mAb 158 Fab (COVOX-158) (Fab, V domains shown)
VH: EVQLLESGGDLIQPGGSLRLSCAASGVTVSSNYMSWVRQAPGKGLEWVSIIYPGGSTFYADSVKGRFTISRDNSKNTLYLQMHSLRAEDTAVYYCARDLGSGDMDVWGKGTTVTVSS
VL: DIVMTQSPSFLSASVGDRVTITCRASQGISSYLAWYQQKPGKAPKLLIQAASTLQSGVPSRFSGSGSGTEFTLTISSLQPEDFATYYCQQLNSYRYTFGQGTKVEIK

Key:
[1] = biological target: T1, His-tagged SARS-CoV-2 RBD (early pandemic, Wuhan) (SARS-CoV-2, UniProt P0DTC2); test: SPR; settings: both partners purified
[2] = biological target: T1, His-tagged SARS-CoV-2 RBD (early …); test: crystal structure; settings: both partners purified

Row | Binder | Kd [1] [nM] | binding result [2]
1 | B1 | 7.8 | 
2 | B2 | 0.177 | 
3 | B3 |  | binds
4 | B4 |  | binds
